One may read the Kd as the free concentration of one partner at which half of the binding sites on the other are occupied at equilibrium, for simple one-to-one binding.

The target in the assay is T1, cynomolgus monkey FcγRIIa2 extracellular domain, C-terminal His-tag (cynomolgus monkey).
T1 construct: also called cyno FcγRIIa2; cynoFcgRIIa2; not shown: His-tag added to C-terminus
T1 chain: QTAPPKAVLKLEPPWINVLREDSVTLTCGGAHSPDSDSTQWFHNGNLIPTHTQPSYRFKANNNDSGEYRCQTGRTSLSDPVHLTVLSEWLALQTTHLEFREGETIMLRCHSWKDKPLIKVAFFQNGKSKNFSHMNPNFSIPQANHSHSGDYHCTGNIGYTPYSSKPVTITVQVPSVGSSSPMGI
The experiment in a line: SPR (Biacore), antibody captured, FcgR analyte, 25 C.

B1: M103205H795-MY242/M103202L889-SK1 (antibody, human IgG1, kappa)
heavy: QVTLKESGPVLVKPTETLTLTCTVSGIDLSHDDISWVRQAPGKGLEWVGIISYAGSTYYASWAKGRLTISKDTSKNQVVLTMTNMDPVDTATYYCARGVPAYSHGGDLWGQGTLVTVSSASTKGPSVFPLAPSSKSTSGGTAALGCLVKDYFPEPVTVSWNSGALTSGVHTFPAVLQSSGLYSLSSVVTVPSSSLGTQTYICNVNHKPSNTKVDKKVEPKSCDKTHTCPPCPAPELLGGISVFLFPPKPKDTLMISRTPEVTCVVVDVSDEDPEVKFNWYVDGVEVHNAKTKPREEQYNSTYRVVSVLTVLHQDWLNGKEYKCKVSNKALPKPIEKTISKAKGQPREPQVYTLPPSREEMTKNQVSLTCLVKGFYPSDIAVEWESNGQPENNYKTTPKVLDSDGSFFLYSKLTVDKSRWQQGNVFSCSVMHEALHNHYTQKSLSLSP
light: DIVMTQSPATLSLSPGERATLSCTSSQSVYHANWLSWFQQKPGQPPKLLIYWASTLAYGVPSRFSGSGSGTDFTLTISSLQPEDAATYYCAGGYGGGRYAFGQGTKVEIKRTVAAPSVFIFPPSDEQLKSGTASVVCLLNNFYPREAKVQWKVDNALQSGNSQESVTEQDSKDSTYSLSSTLTLSKADYEKHKVYACEVTHQGLSSPVTKSFNRGEC
Molecule B1 returned a Kd of 4.2 µM.

B2: M103205H795-MY276/M103202L889-SK1 (antibody, human IgG1, kappa)
heavy: QVTLKESGPVLVKPTETLTLTCTVSGIDLSHDDISWVRQAPGKGLEWVGIISYAGSTYYASWAKGRLTISKDTSKNQVVLTMTNMDPVDTATYYCARGVPAYSHGGDLWGQGTLVTVSSASTKGPSVFPLAPSSKSTSGGTAALGCLVKDYFPEPVTVSWNSGALTSGVHTFPAVLQSSGLYSLSSVVTVPSSSLGTQTYICNVNHKPSNTKVDKKVEPKSCDKTHTCPPCPAPELLIGPSVFLFPPKPKDTLMISRTPEVTCVVVDVSDEDPEVKFNWYVDGVEVHNAKTKPREEQYNSTYRVVSVLTVLHQDWLNGKEYKCKVSNKALPKPIEKTISKAKGQPREPQVYTLPPSREEMTKNQVSLTCLVKGFYPSDIAVEWESNGQPENNYKTTPKVLDSDGSFFLYSKLTVDKSRWQQGNVFSCSVMHEALHNHYTQKSLSLSP
light: DIVMTQSPATLSLSPGERATLSCTSSQSVYHANWLSWFQQKPGQPPKLLIYWASTLAYGVPSRFSGSGSGTDFTLTISSLQPEDAATYYCAGGYGGGRYAFGQGTKVEIKRTVAAPSVFIFPPSDEQLKSGTASVVCLLNNFYPREAKVQWKVDNALQSGNSQESVTEQDSKDSTYSLSSTLTLSKADYEKHKVYACEVTHQGLSSPVTKSFNRGEC
Consider B2, for which binding was put at a Kd of 1.3 µM.

B3: M103205H795-MY274/M103202L889-SK1 (antibody, human IgG1, kappa)
heavy: QVTLKESGPVLVKPTETLTLTCTVSGIDLSHDDISWVRQAPGKGLEWVGIISYAGSTYYASWAKGRLTISKDTSKNQVVLTMTNMDPVDTATYYCARGVPAYSHGGDLWGQGTLVTVSSASTKGPSVFPLAPSSKSTSGGTAALGCLVKDYFPEPVTVSWNSGALTSGVHTFPAVLQSSGLYSLSSVVTVPSSSLGTQTYICNVNHKPSNTKVDKKVEPKSCDKTHTCPPCPAPELLTGPSVFLFPPKPKDTLMISRTPEVTCVVVDVSDEDPEVKFNWYVDGVEVHNAKTKPREEQYNSTYRVVSVLTVLHQDWLNGKEYKCKVSNKALPKPIEKTISKAKGQPREPQVYTLPPSREEMTKNQVSLTCLVKGFYPSDIAVEWESNGQPENNYKTTPKVLDSDGSFFLYSKLTVDKSRWQQGNVFSCSVMHEALHNHYTQKSLSLSP
light: DIVMTQSPATLSLSPGERATLSCTSSQSVYHANWLSWFQQKPGQPPKLLIYWASTLAYGVPSRFSGSGSGTDFTLTISSLQPEDAATYYCAGGYGGGRYAFGQGTKVEIKRTVAAPSVFIFPPSDEQLKSGTASVVCLLNNFYPREAKVQWKVDNALQSGNSQESVTEQDSKDSTYSLSSTLTLSKADYEKHKVYACEVTHQGLSSPVTKSFNRGEC
On to B3, for which binding was put at a Kd of 0.8 µM.

B4: M103205H795-MY270/M103202L889-SK1 (antibody, human IgG1, kappa)
heavy: QVTLKESGPVLVKPTETLTLTCTVSGIDLSHDDISWVRQAPGKGLEWVGIISYAGSTYYASWAKGRLTISKDTSKNQVVLTMTNMDPVDTATYYCARGVPAYSHGGDLWGQGTLVTVSSASTKGPSVFPLAPSSKSTSGGTAALGCLVKDYFPEPVTVSWNSGALTSGVHTFPAVLQSSGLYSLSSVVTVPSSSLGTQTYICNVNHKPSNTKVDKKVEPKSCDKTHTCPPCPAPELLHGPSVFLFPPKPKDTLMISRTPEVTCVVVDVSDEDPEVKFNWYVDGVEVHNAKTKPREEQYNSTYRVVSVLTVLHQDWLNGKEYKCKVSNKALPKPIEKTISKAKGQPREPQVYTLPPSREEMTKNQVSLTCLVKGFYPSDIAVEWESNGQPENNYKTTPKVLDSDGSFFLYSKLTVDKSRWQQGNVFSCSVMHEALHNHYTQKSLSLSP
light: DIVMTQSPATLSLSPGERATLSCTSSQSVYHANWLSWFQQKPGQPPKLLIYWASTLAYGVPSRFSGSGSGTDFTLTISSLQPEDAATYYCAGGYGGGRYAFGQGTKVEIKRTVAAPSVFIFPPSDEQLKSGTASVVCLLNNFYPREAKVQWKVDNALQSGNSQESVTEQDSKDSTYSLSSTLTLSKADYEKHKVYACEVTHQGLSSPVTKSFNRGEC
For the molecule B4, binding was put at a Kd of 2.3 µM.

B5: M103205H795-MY271/M103202L889-SK1 (antibody, human IgG1, kappa)
heavy: QVTLKESGPVLVKPTETLTLTCTVSGIDLSHDDISWVRQAPGKGLEWVGIISYAGSTYYASWAKGRLTISKDTSKNQVVLTMTNMDPVDTATYYCARGVPAYSHGGDLWGQGTLVTVSSASTKGPSVFPLAPSSKSTSGGTAALGCLVKDYFPEPVTVSWNSGALTSGVHTFPAVLQSSGLYSLSSVVTVPSSSLGTQTYICNVNHKPSNTKVDKKVEPKSCDKTHTCPPCPAPELLVGPSVFLFPPKPKDTLMISRTPEVTCVVVDVSDEDPEVKFNWYVDGVEVHNAKTKPREEQYNSTYRVVSVLTVLHQDWLNGKEYKCKVSNKALPKPIEKTISKAKGQPREPQVYTLPPSREEMTKNQVSLTCLVKGFYPSDIAVEWESNGQPENNYKTTPKVLDSDGSFFLYSKLTVDKSRWQQGNVFSCSVMHEALHNHYTQKSLSLSP
light: DIVMTQSPATLSLSPGERATLSCTSSQSVYHANWLSWFQQKPGQPPKLLIYWASTLAYGVPSRFSGSGSGTDFTLTISSLQPEDAATYYCAGGYGGGRYAFGQGTKVEIKRTVAAPSVFIFPPSDEQLKSGTASVVCLLNNFYPREAKVQWKVDNALQSGNSQESVTEQDSKDSTYSLSSTLTLSKADYEKHKVYACEVTHQGLSSPVTKSFNRGEC
On to B5, for which binding was put at a Kd of 0.7 µM.

B6: M103205H795-MY272/M103202L889-SK1 (antibody, human IgG1, kappa)
heavy: QVTLKESGPVLVKPTETLTLTCTVSGIDLSHDDISWVRQAPGKGLEWVGIISYAGSTYYASWAKGRLTISKDTSKNQVVLTMTNMDPVDTATYYCARGVPAYSHGGDLWGQGTLVTVSSASTKGPSVFPLAPSSKSTSGGTAALGCLVKDYFPEPVTVSWNSGALTSGVHTFPAVLQSSGLYSLSSVVTVPSSSLGTQTYICNVNHKPSNTKVDKKVEPKSCDKTHTCPPCPAPELLQGPSVFLFPPKPKDTLMISRTPEVTCVVVDVSDEDPEVKFNWYVDGVEVHNAKTKPREEQYNSTYRVVSVLTVLHQDWLNGKEYKCKVSNKALPKPIEKTISKAKGQPREPQVYTLPPSREEMTKNQVSLTCLVKGFYPSDIAVEWESNGQPENNYKTTPKVLDSDGSFFLYSKLTVDKSRWQQGNVFSCSVMHEALHNHYTQKSLSLSP
light: DIVMTQSPATLSLSPGERATLSCTSSQSVYHANWLSWFQQKPGQPPKLLIYWASTLAYGVPSRFSGSGSGTDFTLTISSLQPEDAATYYCAGGYGGGRYAFGQGTKVEIKRTVAAPSVFIFPPSDEQLKSGTASVVCLLNNFYPREAKVQWKVDNALQSGNSQESVTEQDSKDSTYSLSSTLTLSKADYEKHKVYACEVTHQGLSSPVTKSFNRGEC
The molecule B6 gave a Kd of 1.9 µM.

B7: M103205H795-MY273/M103202L889-SK1 (antibody, human IgG1, kappa)
heavy: QVTLKESGPVLVKPTETLTLTCTVSGIDLSHDDISWVRQAPGKGLEWVGIISYAGSTYYASWAKGRLTISKDTSKNQVVLTMTNMDPVDTATYYCARGVPAYSHGGDLWGQGTLVTVSSASTKGPSVFPLAPSSKSTSGGTAALGCLVKDYFPEPVTVSWNSGALTSGVHTFPAVLQSSGLYSLSSVVTVPSSSLGTQTYICNVNHKPSNTKVDKKVEPKSCDKTHTCPPCPAPELLLGPSVFLFPPKPKDTLMISRTPEVTCVVVDVSDEDPEVKFNWYVDGVEVHNAKTKPREEQYNSTYRVVSVLTVLHQDWLNGKEYKCKVSNKALPKPIEKTISKAKGQPREPQVYTLPPSREEMTKNQVSLTCLVKGFYPSDIAVEWESNGQPENNYKTTPKVLDSDGSFFLYSKLTVDKSRWQQGNVFSCSVMHEALHNHYTQKSLSLSP
light: DIVMTQSPATLSLSPGERATLSCTSSQSVYHANWLSWFQQKPGQPPKLLIYWASTLAYGVPSRFSGSGSGTDFTLTISSLQPEDAATYYCAGGYGGGRYAFGQGTKVEIKRTVAAPSVFIFPPSDEQLKSGTASVVCLLNNFYPREAKVQWKVDNALQSGNSQESVTEQDSKDSTYSLSSTLTLSKADYEKHKVYACEVTHQGLSSPVTKSFNRGEC
Molecule B7 returned a Kd of 3.5 µM.

B8: M103205H795-MY269/M103202L889-SK1 (antibody, human IgG1, kappa)
heavy: QVTLKESGPVLVKPTETLTLTCTVSGIDLSHDDISWVRQAPGKGLEWVGIISYAGSTYYASWAKGRLTISKDTSKNQVVLTMTNMDPVDTATYYCARGVPAYSHGGDLWGQGTLVTVSSASTKGPSVFPLAPSSKSTSGGTAALGCLVKDYFPEPVTVSWNSGALTSGVHTFPAVLQSSGLYSLSSVVTVPSSSLGTQTYICNVNHKPSNTKVDKKVEPKSCDKTHTCPPCPAPELLMGPSVFLFPPKPKDTLMISRTPEVTCVVVDVSDEDPEVKFNWYVDGVEVHNAKTKPREEQYNSTYRVVSVLTVLHQDWLNGKEYKCKVSNKALPKPIEKTISKAKGQPREPQVYTLPPSREEMTKNQVSLTCLVKGFYPSDIAVEWESNGQPENNYKTTPKVLDSDGSFFLYSKLTVDKSRWQQGNVFSCSVMHEALHNHYTQKSLSLSP
light: DIVMTQSPATLSLSPGERATLSCTSSQSVYHANWLSWFQQKPGQPPKLLIYWASTLAYGVPSRFSGSGSGTDFTLTISSLQPEDAATYYCAGGYGGGRYAFGQGTKVEIKRTVAAPSVFIFPPSDEQLKSGTASVVCLLNNFYPREAKVQWKVDNALQSGNSQESVTEQDSKDSTYSLSSTLTLSKADYEKHKVYACEVTHQGLSSPVTKSFNRGEC
Molecule B8 came in with a Kd of 2.6 µM.

For the origin of these results see patent US20200317768A1 (published 2020).
